Test results published in the Immune Epitope Database (IEDB).

How the values were obtained:
[1] = target: HLA-B*08:01; test: IEDB peptide-MHC binding, purified MHC/direct/fluorescence; filed as Kd, often an IC50 or EC50 that approximates it; ≥ and ≤ were set here for values at or beyond the usual limits of such assays
[2] = target: HLA-B*40:01; test: as above
[3] = target: HLA-A*02:01; test: as above
[4] = target: HLA-B*46:01; test: as above
[5] = target: HLA-B*15:01; test: as above
[6] = target: HLA-B*58:01; test: as above
[7] = target: HLA-B*08:02; test: as above
[8] = target: HLA-A*26:01; test: as above
[9] = target: HLA-B*44:02; test: as above
[10] = target: HLA-B*07:02; test: as above
[11] = target: HLA-A*69:01; test: as above
[12] = target: HLA-B*18:01; test: as above
[13] = target: HLA-A*24:02; test: as above
[14] = target: HLA-A*03:01; test: as above
[15] = target: HLA-B*27:05; test: as above
[16] = target: HLA-A*01:01; test: as above
[17] = target: HLA-A*30:01; test: IEDB peptide-MHC binding, purified MHC/competitive/fluorescence; filed as Kd, often an IC50 or EC50 that approximates it; ≥ and ≤ were set here for values at or beyond the usual limits of such assays; details: source organism: Influenza A virus (A/X-31(H3N2))
[18] = target: HLA-B*48:01; test: IEDB peptide-MHC binding, purified MHC/direct/fluorescence; filed as Kd, often an IC50 or EC50 that approximates it; ≥ and ≤ were set here for values at or beyond the usual limits of such assays; details: source organism: Influenza A virus (A/chicken/Hubei/wm/1997(H5N1))
[19] = target: HLA-A*31:01; test: as above
[20] = target: HLA-B*15:17; test: as above; details: source organism: Influenza A virus (A/chicken/Hubei/wm/1997(H5N1))
[21] = target: HLA-B*57:01; test: as above; details: source organism: Influenza A virus (A/chicken/Hubei/wm/1997(H5N1))
[22] = target: HLA-A*26:02; test: as above
[23] = target: HLA-A*11:01; test: as above
[24] = target: HLA-A*02:01; test: IEDB peptide-MHC binding, purified MHC/competitive/fluorescence; ≥ and ≤ were set here for values at or beyond the usual limits of such assays
[25] = target: HLA-A*01:01; test: as above
[26] = target: HLA-A*11:01; test: as above
[27] = target: HLA-A*02:01; test: IEDB peptide-MHC binding, purified MHC/competitive/radioactivity; ≥ and ≤ were set here for values at or beyond the usual limits of such assays; details: source organism: Trypanosoma cruzi
[28] = target: HLA-A*02:03; test: IEDB peptide-MHC binding, purified MHC/competitive/radioactivity; filed as Kd, often an IC50 or EC50 that approximates it; ≥ and ≤ were set here for values at or beyond the usual limits of such assays; details: source organism: Trypanosoma cruzi
[29] = target: HLA-A*68:02; test: as above; details: source organism: Trypanosoma cruzi
[30] = target: HLA-A*02:06; test: as above; details: source organism: Trypanosoma cruzi
[31] = target: HLA-A*02:02; test: as above; details: source organism: Trypanosoma cruzi
[32] = target: HLA-B*15:01; test: IEDB peptide-MHC binding, purified MHC/competitive/fluorescence; ≥ and ≤ were set here for values at or beyond the usual limits of such assays
[33] = target: HLA-A*03:01; test: as above; details: source organism: Variola virus
[34] = target: HLA-B*51:01; test: IEDB peptide-MHC binding, purified MHC/competitive/fluorescence; filed as Kd, often an IC50 or EC50 that approximates it; ≥ and ≤ were set here for values at or beyond the usual limits of such assays; details: source organism: Yersinia mollaretii ATCC 43969
[35] = target: HLA-B*08:01; test: as above; details: source organism: Yersinia mollaretii ATCC 43969
[36] = target: HLA-B*07:02; test: as above; details: source organism: Yersinia mollaretii ATCC 43969
[37] = source organism: Influenza A virus (A/swine/Korea/S190/2004(H9N2))
[38] = source organism: Influenza A virus H3N2
[39] = source organism: Influenza A virus (A/Puerto Rico/8/34/Mount Sinai(H1N1))
[40] = source organism: Influenza A virus (A/chicken/Hubei/wm/1997(H5N1))
[41] = source organism: Zaire ebolavirus
[42] = source organism: Vaccinia virus WR
[43] = source organism: Cryptosporidium parvum
[44] = source organism: Escherichia coli O157:H7
[45] = source organism: Influenza A virus (A/Hong Kong/485/1997(H5N1))
[46] = source organism: Influenza A virus (A/chicken/Vietnam/5/2003(H5N1))
[47] = source organism: Influenza A virus(A/swine/Henan/3/2004(H9N2))

## ATTHSWIPK
[1]; [37]
  Kd: ≥ 20 µM
[2]; [37]
  Kd: ≥ 20 µM
[3]; [37]
  Kd: ≥ 20 µM
[4]; [37]
  Kd: ≥ 20 µM
[5]; [37]
  Kd: ≥ 20 µM
[6]; [37]
  Kd: ≥ 20 µM
[7]; [38]
  Kd: ≥ 20 µM
[8]; [38]
  Kd: ≥ 20 µM
[9]; [37]
  Kd: ≥ 20 µM
[10]; [37]
  Kd: ≥ 20 µM
[11]; [37]
  Kd: ≥ 20 µM
[12]; [37]
  Kd: ≥ 20 µM
[13]; [37]
  Kd: ≥ 20 µM
[14]; [39]
  Kd: 0.826 µM
[15]; [37]
  Kd: ≥ 20 µM
[16]; [37]
  Kd: ≥ 20 µM

## EKPKFLPDL
[17]
  Kd: ≥ 20 µM
[18]
  Kd: ≥ 20 µM
[2]; [40]
  Kd: ≥ 20 µM
[3]; [40]
  Kd: ≥ 20 µM
[4]; [40]
  Kd: ≥ 20 µM
[19]; [40]
  Kd: ≥ 20 µM
[20]
  Kd: ≥ 20 µM
[5]; [40]
  Kd: ≥ 20 µM
[21]
  Kd: ≥ 20 µM
[6]; [40]
  Kd: ≥ 20 µM
[22]; source organism: Influenza A virus (A/Taiwan/2/2006(H1N1))
  Kd: ≥ 20 µM
[23]; [40]
  Kd: ≥ 20 µM
[8]; [40]
  Kd: ≥ 20 µM
[10]; [40]
  Kd: ≥ 20 µM
[11]; [40]
  Kd: ≥ 20 µM
[12]; [40]
  Kd: ≥ 20 µM
[14]; [40]
  Kd: ≥ 20 µM
[15]; [40]
  Kd: ≥ 20 µM
[16]; [40]
  Kd: ≥ 20 µM

## ETVEWALKF
[22]; source organism: Kurkino virus
  Kd: ≤ 0.001 µM
[8]; source organism: Orthohantavirus dobravaense
  Kd: 0.0032 µM

## FCIKVLCPY
[22]; source organism: West Nile virus SPU116/89
  Kd: 0.096 µM

## FLDPATTTS
[24]; [41]
  IC50: 1.78 µM
[25]; [41]
  IC50: ≥ 145 µM

## FTEQAFYTR
[26]; [42]
  IC50: 17.7 µM
[25]; [42]
  IC50: 26.3 µM

## IINAHRIPK
[2]; [43]
  Kd: ≥ 20 µM
[19]; [43]
  Kd: 0.0316 µM
[5]; [43]
  Kd: ≥ 20 µM
[6]; [43]
  Kd: ≥ 20 µM
[23]; [43]
  Kd: 0.0267 µM
[8]; source organism: Cryptosporidium parvum Iowa II
  Kd: ≥ 20 µM
[9]; [43]
  Kd: ≥ 20 µM
[10]; [43]
  Kd: ≥ 20 µM
[11]; [43]
  Kd: ≥ 20 µM
[12]; [43]
  Kd: ≥ 20 µM
[13]; [43]
  Kd: ≥ 20 µM
[14]; [43]
  Kd: 0.0825 µM
[15]; [43]
  Kd: ≥ 20 µM
[16]; [43]
  Kd: ≥ 20 µM

## LLGLWGTAAL
[27]
  IC50: 0.499 µM
[28]
  Kd: 0.00721 µM
[29]
  Kd: 8.19 µM
[30]
  Kd: 1.26 µM
[31]
  Kd: 0.00193 µM

## LLQLNETIY
[24]; [41]
  IC50: ≥ 78.3 µM
[32]; [41]
  IC50: 3.16 µM
[25]; [41]
  IC50: ≥ 88.9 µM

## LSLTKLFSY
[24]; source organism: Variola virus
  IC50: ≥ 103 µM
[32]; source organism: Variola virus
  IC50: 15.5 µM
[26]; source organism: Variola virus
  IC50: 4.13 µM
[33]
  IC50: 18.9 µM
[25]; source organism: Variola virus
  IC50: 3.71 µM

## MPMYAIHKV
[34]
  Kd: 1.14 µM
[35]
  Kd: 1.87 µM
[36]
  Kd: 0.0267 µM

## PILPKLFIL
[2]; [44]
  Kd: ≥ 20 µM
[3]; [44]
  Kd: 5.7 µM
[4]; [44]
  Kd: ≥ 20 µM
[5]; [44]
  Kd: ≥ 20 µM
[6]; [44]
  Kd: ≥ 20 µM
[9]; [44]
  Kd: ≥ 20 µM
[10]; [44]
  Kd: ≥ 20 µM
[12]; [44]
  Kd: ≥ 20 µM
[13]; [44]
  Kd: ≥ 20 µM
[14]; [44]
  Kd: ≥ 20 µM
[15]; [44]
  Kd: ≥ 20 µM
[16]; [44]
  Kd: ≥ 20 µM

## QMRDVLGTF
[2]; [45]
  Kd: ≥ 20 µM
[3]; [45]
  Kd: ≥ 20 µM
[19]; [45]
  Kd: ≥ 20 µM
[5]; [39]
  Kd: 0.066 µM
[6]; [45]
  Kd: ≥ 20 µM
[23]; [45]
  Kd: ≥ 20 µM
[8]; source organism: Influenza A virus (A/Hong Kong/507/97(H5N1))
  Kd: 0.135 µM
[9]; [45]
  Kd: ≥ 20 µM
[10]; [39]
  Kd: 0.381 µM
[13]; [45]
  Kd: ≥ 20 µM
[14]; [45]
  Kd: ≥ 20 µM
[15]; [45]
  Kd: ≥ 20 µM
[16]; [45]
  Kd: ≥ 20 µM

## RVDKLTQGR
[1]; [46]
  Kd: ≥ 20 µM
[2]; [46]
  Kd: ≥ 20 µM
[3]; [46]
  Kd: ≥ 20 µM
[4]; [46]
  Kd: ≥ 20 µM
[5]; [46]
  Kd: ≥ 20 µM
[6]; [46]
  Kd: ≥ 20 µM
[7]; [47]
  Kd: ≥ 20 µM
[8]; [47]
  Kd: ≥ 20 µM
[9]; [46]
  Kd: ≥ 20 µM
[10]; [46]
  Kd: ≥ 20 µM
[11]; [46]
  Kd: ≥ 20 µM
[12]; [46]
  Kd: ≥ 20 µM
[13]; [46]
  Kd: ≥ 20 µM
[14]; [39]
  Kd: ≥ 10 µM
[15]; [46]
  Kd: ≥ 20 µM
[16]; [46]
  Kd: ≥ 20 µM
